This is an account of results in patent publication US6797522B1, “Synthetic receptors” (The Trustees of Columbia University in the City of New York, priority 1996, dated 2004).

The target in experiment [1] is T1, Leu Enkephalin (Homo sapiens, UniProt P01210).
T1 construct: composed of two pentapeptides Tyr-Gly-Gly-Phe-LeuOH and Tyr-Gly-Gly-Phe-MetOH; purchased Bachem, Inc
The experiment can be described thus: Color screening assay of bead-bound receptor libraries with Disperse Red-labelled substrate. It counts as binding. The settings on record: Table 5, label = AA1-AA5. The protocol: (§1) The synthetic receptor library is then assayed to find those members of the library which have the desired interaction with the labeled substrate. In the case where the desired interaction is binding to the substrate, the synthetic receptor library is mixed with a solution of the labeled substrate and those library members that bind to the labeled substrate are selected. This procedure is particularly simple when the synthetic receptor library members are bound to a solid support as shown in Scheme 2. In that case, solid support particles having receptors which bind the labeled substrate accumulate color or fluorescence or radioactivity (depending on the nature of the label used). Depending on the concentration of the labeled substrate used, the assay can be adjusted to detect binding of any desired strength: for example, if the amount of labeled substrate in the presence of the receptor library is adjusted to give a 100 μM concentration of free (unbound) labeled substrate, then assay will only detect template-substrate binding with association constants (k) of (100 μM)^−1 or greater.
(§2) A color assay method was developed for screening receptor library beads. The color dye used is Disperse Red 1 (available from Aldrich Inc.), a neutral diazo dye whose λmax is at 502 nm. Red color in various organic solvents is visible at concentration as low as 100 μM.
(§3) After receptor beads are treated with a substrate which has a color dye attached on it, the bead binding the substrate is stained and can be easily identified in a background of many colorless beads. The stained bead is the removed from the library by a microsyringe, and subjected to decode to identify its structure. The decoding process involves three operations: a) photolysis of the beads, b) silylation of liberated alcohols, c) injection into GC-EC machine. Once identified, the receptor is then resynthesized on large quantities of beads for confirmatory binding studies. […] From this spectrum, the structure of the receptor is identified as C3—OGLY-leu-phe-Ac, C7—OGLY-ala-Lys-Ac.
(§4) Some additional binding studies for Peptidosteroidal receptors with beta-Casomorphinamide and Des-Tyr Leu Enkahphalin, are shown in the following table 5 and are compared to the Leu Enkaphalin and Met Enkaphalin. [drawing 47]

Experiment [2] has as its target T2, Met Enkephalin (Homo sapiens, UniProt P01210).
T2 construct: composed of two pentapeptides Tyr-Gly-Gly-Phe-LeuOH and Tyr-Gly-Gly-Phe-MetOH; purchased Bachem, Inc
The description is as above. The experiment is classed as binding. The settings on record: Table 5, label = AA1-AA5; for pKd: read-out: KD-MAX; for BOUND: percentage of library beads bound. How it is done: as §1, §2, §3, §4

pKd: −log10 of the molar value.

The pKd is −log10 of the Kd, conventionally taken in molar units. In the case of “GLY-ASP-PRO-PRO-LEU (GDPPL; printed: GLY-ASP-PRO-PRO-LEU)”, the negative-log Kd (pKd) in experiment [1] (read-out: KD-MAX) is 4.09. This substance also returned a BOUND in experiment [1] (percentage of library beads bound) of 0.7%.

For the substance “GLY-PHE-PRO-PRO-LEU (GFPPL; printed: GLY-PHE-PRO-PRO-LEU)”, in experiment [2], the pKd was 4.07 and the BOUND was found to be 0.5%.

For “PRO-THR-LYS-PHE-ALA (PTKFA; printed: PRO-THR-LYS-PHE-ALA)”, in experiment [2], the negative-log Kd (pKd) is 4.12 and the BOUND came to 0.8%.
